The record followed here is the Immune Epitope Database (IEDB).

What is called pKd is the Kd on a negative log10 scale, so that one unit is a factor of ten.

pKd: −log10 of the molar value.

Among the targets are HLA-A*02:06; HLA-A*02:02; HLA-A*02:03.
What all share (experiment): IEDB peptide-MHC binding, purified MHC/competitive/radioactivity; filed as Kd, often an IC50 or EC50 that approximates it; ≥ and ≤ were set here for values at or beyond the usual limits of such assays
[1] abbreviates: source organism: Vaccinia virus WR.
[2] abbreviates: source organism: Dengue virus 2 Jamaica/1409/1983.
[3] abbreviates: source organism: SARS coronavirus Tor2.
The mark [4] stands for this setting: source organism: Mammarenavirus juninense.
Where [5] appears, read: source organism: Dengue virus 2 16681-PDK53.
Where [6] appears, read: source organism: Mammarenavirus guanaritoense.

For the sequence AAIDRQVSV, the values for the pKd in the experiment with HLA-A*02:06 (setting [1]), in the experiment with HLA-A*02:02 (setting [1]) and in the experiment with HLA-A*02:03 (setting [1]) were 7.83, 6.03 and 7.73, respectively.
Take AIMAVGMVSI: in the experiment with HLA-A*02:03 (setting [2]), the pKd is 7.24.
Regarding AMHDKKIDI, the pKd is at most 4.38 with HLA-A*02:06 (setting [1]), 4.76 in the experiment with HLA-A*02:02 (setting [1]) and 5.82 with HLA-A*02:03 (setting [1]).
Consider ATLNTLITLI, for which the pKd with HLA-A*02:06 (setting [1]) was 6.70; with HLA-A*02:02 (setting [1]), 7.50; with HLA-A*02:03 (setting [1]) it was 7.55.
In the same order, the values of CIVQSVLRDI are 6.07, 6.66 and 6.80.
Regarding DAKRNSKSLV, the values for the pKd with HLA-A*02:06 (setting [1]), with HLA-A*02:02 (setting [1]) and with HLA-A*02:03 (setting [1]) were at most 4.28, 4.88 and 5.54, respectively.
With DINVIGLIV, the pKd was 5.26 with HLA-A*02:06 (setting [1]), 5.01 with HLA-A*02:02 (setting [1]) and 5.39 in the experiment with HLA-A*02:03 (setting [1]).
With DLMSSKDDV, the pKd with HLA-A*02:06 (source organism: Homo sapiens) is at most 3.88.
As to DTDIVNNFIT, the values for the pKd with HLA-A*02:06 (setting [1]), in the experiment with HLA-A*02:02 (setting [1]) and with HLA-A*02:03 (setting [1]) were 5.64, 5.07 and 5.25, respectively.
Regarding FLITGVFDI, the pKd in the experiment with HLA-A*02:06 (setting [3]) is 8.83; with HLA-A*02:02 (setting [3]), 9.16; with HLA-A*02:03 (setting [3]), 9.12.
For the sequence FLIVAALVFL, the pKd is 8.44 with HLA-A*02:06 (setting [3]), 8.52 in the experiment with HLA-A*02:02 (setting [3]) and 6.79 with HLA-A*02:03 (setting [3]).
Regarding FTSDYPFYV, the pKd with HLA-A*02:06 (setting [1]) was 8.45; in the experiment with HLA-A*02:02 (setting [1]), 8.68; in the experiment with HLA-A*02:03 (setting [1]) it was 8.41.
Take FTYASALWEI: the results for the pKd with HLA-A*02:06 (setting [3]), with HLA-A*02:02 (setting [3]) and with HLA-A*02:03 (setting [3]) were 8.60, 8.80 and 8.22, respectively.
For FVKKMLPKII, the pKd is 5.17 in the experiment with HLA-A*02:06 (setting [1]), 4.95 with HLA-A*02:02 (setting [1]) and 5.94 with HLA-A*02:03 (setting [1]).
On to GLSQRHEEKV, for which the pKd with HLA-A*02:06 (source organism: Homo sapiens) is at most 4.27.
In the case of HTKFWISDNT, the pKd with HLA-A*02:06 (setting [1]) is at most 4.16; with HLA-A*02:02 (setting [1]), at most 4.67; in the experiment with HLA-A*02:03 (setting [1]), at most 4.22.
For ILNPYMPSVV, the pKd in the experiment with HLA-A*02:03 (source organism: Dengue virus 1 Brazil/97-11/1997) is 8.49.
Turning to ILRNYLRLYI, the results for the negative logarithm of the Kd (pKd) with HLA-A*02:06 (setting [1]), with HLA-A*02:02 (setting [1]) and with HLA-A*02:03 (setting [1]) were 7.19, 9.40 and 9.05, respectively.
As to IQYRQQLELA, the figures for the pKd with HLA-A*02:06 (setting [1]), with HLA-A*02:02 (setting [1]) and in the experiment with HLA-A*02:03 (setting [1]) were at most 4.16, 5.36 and 5.07, respectively.
Regarding ITNILGGVL, the values for the pKd with HLA-A*02:06 (setting [1]), with HLA-A*02:02 (setting [1]) and with HLA-A*02:03 (setting [1]) were at most 4.49, 5.13 and 5.61, respectively.
Turning to ITPNNLNKI, the pKd with HLA-A*02:06 (setting [1]) was 6.39; with HLA-A*02:02 (setting [1]), 4.84; with HLA-A*02:03 (setting [1]), 6.06.
The corresponding values for IVAAVIIMAI are 5.35, 6.14 and 5.58.
In the same order, the values of IVDKFGKNHI are 5.08, 5.53 and 5.29.
As for IVTFINDYA, the negative-log Kd (pKd) was 5.94 with HLA-A*02:06 (setting [1]), 6.85 with HLA-A*02:02 (setting [1]) and 5.53 with HLA-A*02:03 (setting [1]).
With KIILFLTLI, the values for the pKd with HLA-A*02:06 (setting [3]), with HLA-A*02:02 (setting [3]) and with HLA-A*02:03 (setting [3]) were 7.61, 7.17 and 8.31, respectively.
Consider KIYTLIYRQL, for which the pKd is 6.04 in the experiment with HLA-A*02:06 (setting [1]), 6.15 in the experiment with HLA-A*02:02 (setting [1]) and 5.99 in the experiment with HLA-A*02:03 (setting [1]).
In the same order, the values of KLISEKETL are 5.12, 6.08 and at most 4.61.
As to KLRSSPPIPM, the pKd was 5.66 with HLA-A*02:06 (setting [1]), 7.24 in the experiment with HLA-A*02:02 (setting [1]) and 6.87 with HLA-A*02:03 (setting [1]).
As to KLTLKGMSYV, in the experiment with HLA-A*02:03 (source organism: Dengue virus 1 Singapore/S275/1990), the pKd is 7.27.
With KSGLFQFFV, the values for the pKd with HLA-A*02:06 (setting [4]), in the experiment with HLA-A*02:02 (setting [4]) and with HLA-A*02:03 (setting [4]) were 8.09, 7.64 and 5.81, respectively.
In the case of KVSCTILAV, the values for the pKd with HLA-A*02:06 (setting [5]) and with HLA-A*02:03 (setting [5]) were 7.74 and 7.24, respectively.
In the case of KVYNGIFVDT, the pKd with HLA-A*02:06 (setting [1]) is 4.79; in the experiment with HLA-A*02:02 (setting [1]), 6.95; with HLA-A*02:03 (setting [1]), 5.84.
The corresponding values for LALTDVEKRI are 5.62, 6.70 and 6.39.
With LAYYNSCML, the pKd was at most 4.67 with HLA-A*02:06 (setting [1]), 4.89 with HLA-A*02:02 (setting [1]) and 4.81 with HLA-A*02:03 (setting [1]).
Regarding LCFWSAIFFT, the pKd in the experiment with HLA-A*02:06 (setting [6]) was at most 4.46; in the experiment with HLA-A*02:02 (setting [6]), 5.59; with HLA-A*02:03 (setting [6]) it was at most 4.52.
Take LLATVTGGI: the negative logarithm of the Kd (pKd) with HLA-A*02:03 (setting [2]) is 8.44.
As for LLFLVLIML, the pKd in the experiment with HLA-A*02:06 (setting [3]) was 6.24; with HLA-A*02:02 (setting [3]) it was 6.81; in the experiment with HLA-A*02:03 (setting [3]), 5.86.
As to LMMATIGIA, the pKd with HLA-A*02:03 (setting [2]) is 9.31.
